The target in this assay is T1, Human siglec-6 expressed on the cell surface (HMC1.2 cells; HEK293 cells expressing human siglec-6) (human, UniProt O43699 27-453).
T1 construct: whole, on cells; also called cell surface expressed siglec-6; CD327
Nature of the assay: flow cytometry on HMC1.2 cells. As to the method: Target binding of siglec-6 antibodies to siglec-6-expressing cells was assessed by flow cytometry. Cultured HMC1.2 cells were resuspended in FACS Blocking Buffer (PBS+10% normal human serum) for 30 minutes. Following washing, cells were incubated with siglec-6 antibodies in FACS Buffer (PBS+0.5% bovine serum albumin+0.09% sodium azide) and incubated at 4° C. for 30 minutes, washed and incubated with PE-labeled anti-human or anti-mouse secondary antibodies. Cells were incubated at 4° C. for 30 minutes in the dark. Following washing, cytofluorimetric analysis was conducted using a BD FACS Symphony A3 (BD Biosciences). Cells were sorted by scatter properties and separated for single cell analysis using side scatter width vs side scatter area. Antibody binding to cells was quantitated by measuring fluorescent emissions of excitation wavelength of 561 nm using a 586/15 nm filter. All tested siglec-6 antibodies were capable of binding to cells expressing siglec-6.

From patent US20260070975A1 (SANTA ANA BIO, published 2026) come the findings set out here.

Positions count from the first letter of the chain named.

T1 sequence (O43699 27-453): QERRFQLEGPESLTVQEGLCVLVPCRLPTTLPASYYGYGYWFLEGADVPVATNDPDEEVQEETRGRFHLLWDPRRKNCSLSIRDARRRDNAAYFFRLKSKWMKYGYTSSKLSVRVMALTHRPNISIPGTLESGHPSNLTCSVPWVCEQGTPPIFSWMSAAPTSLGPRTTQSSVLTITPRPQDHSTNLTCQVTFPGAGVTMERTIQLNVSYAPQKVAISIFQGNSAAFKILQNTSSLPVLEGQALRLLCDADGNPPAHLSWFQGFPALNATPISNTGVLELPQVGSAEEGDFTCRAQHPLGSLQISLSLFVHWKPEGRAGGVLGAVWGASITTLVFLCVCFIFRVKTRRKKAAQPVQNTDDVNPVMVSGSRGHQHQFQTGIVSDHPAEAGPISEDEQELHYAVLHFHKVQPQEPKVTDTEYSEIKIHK

B1: hRND-2 (antibody, human IgG1, kappa, V domains shown)
VH: QVQLVQSGAEVKKPGASVKVSCKASGYAFTSYWMHWVRQAPGQRLEWMGEIYPTNGGTTYAQKFQGRVTMTVDKSTSTAYMELSRLRSDDTAVYYCTIEDFYAMDYWGQGTTVTVSS
VL: DIVMTQTPLSLSVTPGQPASISCKSSQSLLDSDGKTSLNWLLQKPGQSPQRLIYLVSKLDSGVPDRFSGSGSGTDFTLKISRVEAEDVGVYYCWQGTHFPYTFGQGTKLEIKR
notes: also called humanized RND-2; hRND-H2 / hRND-L3; copies: 2 + 2
In the case of B1, the MFI is 3130 MFI and the “Percent Positive for Siglec-6 on HMC1.2 cells” value (“Percent Positive” below) amounted to 99.9%.

B2: hRND-5 (antibody, human IgG1, kappa, V domains shown)
VH: B1 VH with V20L, M48I, A61N, Q62E, Q65K, G66R, V68A, M70L
VL: B1 VL
notes: also called humanized RND-5; hRND-H3b / hRND-L3; copies: 2 + 2
For the molecule B2, the MFI amounted to 1940 MFI and the “Percent Positive” value was 99.9%.

B3: hRND-4 (antibody, human IgG1, kappa, V domains shown)
VH: B1 VH with A61N, Q62E, Q65K, G66R
VL: B1 VL
notes: also called humanized RND-4; hRND-H2b / hRND-L3; copies: 2 + 2
Regarding B3, the MFI turned out to be 3200 MFI and the “Percent Positive” value was 100%.

B4: hRND-3 (antibody, human IgG1, kappa, V domains shown)
VH: B1 VH with V20L, M48I, V68A, M70L
VL: B1 VL
notes: also called humanized RND-3; hRND-H3 / hRND-L3; copies: 2 + 2
On to B4, for which the MFI worked out at 3700 MFI and the “Percent Positive” value amounted to 99.9%.
